Test [1] addresses wild-type equine follicle-stimulating hormone receptor (equine) (UniProt P47799).
The target in test [2] is equine follicle-stimulating hormone receptor R633H (equine) (UniProt P47799).
Test [3] deals with equine follicle-stimulating hormone receptor N191I (equine) (UniProt P47799).
Test [4] addresses equine follicle-stimulating hormone receptor D566G (equine) (UniProt P47799).
For test [5], the target named is wild-type equine follicle-stimulating hormone receptor (equine) (UniProt P47799). The source holds these as a separate data set.
wild-type equine follicle-stimulating hormone receptor (equine), sequence (P47799 18-694): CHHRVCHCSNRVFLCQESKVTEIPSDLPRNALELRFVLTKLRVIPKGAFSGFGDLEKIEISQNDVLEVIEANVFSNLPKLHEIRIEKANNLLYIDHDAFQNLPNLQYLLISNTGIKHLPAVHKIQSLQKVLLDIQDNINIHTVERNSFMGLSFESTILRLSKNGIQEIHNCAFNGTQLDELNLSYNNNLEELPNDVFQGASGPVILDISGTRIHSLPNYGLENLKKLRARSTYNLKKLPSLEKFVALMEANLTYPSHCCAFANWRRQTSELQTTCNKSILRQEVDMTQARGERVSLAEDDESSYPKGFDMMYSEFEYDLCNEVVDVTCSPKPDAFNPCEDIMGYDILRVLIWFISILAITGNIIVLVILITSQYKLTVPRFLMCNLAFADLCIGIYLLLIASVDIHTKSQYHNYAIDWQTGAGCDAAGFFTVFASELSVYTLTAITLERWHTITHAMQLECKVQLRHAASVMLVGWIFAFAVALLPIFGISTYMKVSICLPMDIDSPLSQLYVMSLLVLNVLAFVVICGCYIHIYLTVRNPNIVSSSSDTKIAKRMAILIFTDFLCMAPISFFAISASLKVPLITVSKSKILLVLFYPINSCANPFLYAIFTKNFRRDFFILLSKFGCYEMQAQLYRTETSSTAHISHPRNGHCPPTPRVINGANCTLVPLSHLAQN
Test [6] has as its target equine follicle-stimulating hormone receptor A306T (equine) (UniProt P47799).

In publication PMC8902225 one finds EC50 of FSH-stimulated cAMP accumulation (HTRF) in transfected PathHunter EA-parental CHO-K1 cells (series with the inactivating mutants) and EC50 of FSH-stimulated cAMP accumulation (HTRF) in transfected PathHunter EA-parental CHO-K1 cells data, which are given here for one substance.

Human FSH (follicle-stimulating hormone), sequence (P01215 25-116): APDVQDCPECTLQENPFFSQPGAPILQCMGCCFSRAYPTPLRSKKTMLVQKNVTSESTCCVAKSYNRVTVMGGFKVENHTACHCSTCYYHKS
Human FSH (follicle-stimulating hormone), sequence (P01225 19-129): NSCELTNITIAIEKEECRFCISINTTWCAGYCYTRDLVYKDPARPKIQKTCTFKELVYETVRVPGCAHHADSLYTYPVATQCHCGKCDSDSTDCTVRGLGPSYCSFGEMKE
equine follicle-stimulating hormone receptor N191I (equine), sequence (P47799 18-694 N191I): as the sequence (P47799 18-694) above, with N174I counted along it
equine follicle-stimulating hormone receptor R633H (equine), sequence (P47799 18-694 R633H): as the sequence (P47799 18-694) above, with R616H counted along it
equine follicle-stimulating hormone receptor A306T (equine), sequence (P47799 18-694 A306T): as the sequence (P47799 18-694) above, with A289T counted along it
equine follicle-stimulating hormone receptor D566G (equine), sequence (P47799 18-694 D566G): as the sequence (P47799 18-694) above, with D549G counted along it

Consider “Human FSH (follicle-stimulating hormone) (from UniProt P01215 25-116; P01225 19-129) (ligand)”, for which, in test [1], the EC50 of FSH-stimulated cAMP accumulation (HTRF) in transfected PathHunter EA-parental CHO-K1 cells (series with the inactivating mutants) came out at 0.718 µg/mL. Moreover, the EC50 of FSH-stimulated cAMP accumulation (HTRF) in transfected PathHunter EA-parental CHO-K1 cells in test [2] came to 1.16 µg/mL; in test [3], 3.91 µg/mL; in test [4], 0.648 µg/mL; in test [5] it was 0.765 µg/mL; in test [6], 0.751 µg/mL.
